Experimental data published in article PMC7425812 (Nature cell biology, 2020).
Read-outs that look alike come from different tables or passages of the source.

B1: AKAP95 (endogenous, HeLa cell nuclear extract) (natural protein)
chain: not shown
B2: FLAG-HA-tagged AKAP95 (FH-AKAP95), wild type (natural protein)
chain: not shown

What was measured:
[1] = biological target: the molecule itself; assay: SDS-resistant dimer on SDS-PAGE immunoblot
[2] = biological target: the molecule itself; assay: SDS-resistant dimer on SDS-PAGE immunoblot; remark: listed apart in the source

| Protein | stoichiometry N [1] | stoichiometry N [2] |
| --- | --- | --- |
| B1 | 2 |  |
| B2 |  | 2 |
